One may read the EC50 as the midpoint of the concentration-response curve.

Several values for one entry are separate records, joined by “and”; a condition that tells them apart may be missing. Identical values can stand only once.

Assay [1] deals with T1, human FLT3 (Fms Related Receptor Tyrosine Kinase 3) expressed on cells (human, UniProt P36888 27-993).
T1 sequence (looked up): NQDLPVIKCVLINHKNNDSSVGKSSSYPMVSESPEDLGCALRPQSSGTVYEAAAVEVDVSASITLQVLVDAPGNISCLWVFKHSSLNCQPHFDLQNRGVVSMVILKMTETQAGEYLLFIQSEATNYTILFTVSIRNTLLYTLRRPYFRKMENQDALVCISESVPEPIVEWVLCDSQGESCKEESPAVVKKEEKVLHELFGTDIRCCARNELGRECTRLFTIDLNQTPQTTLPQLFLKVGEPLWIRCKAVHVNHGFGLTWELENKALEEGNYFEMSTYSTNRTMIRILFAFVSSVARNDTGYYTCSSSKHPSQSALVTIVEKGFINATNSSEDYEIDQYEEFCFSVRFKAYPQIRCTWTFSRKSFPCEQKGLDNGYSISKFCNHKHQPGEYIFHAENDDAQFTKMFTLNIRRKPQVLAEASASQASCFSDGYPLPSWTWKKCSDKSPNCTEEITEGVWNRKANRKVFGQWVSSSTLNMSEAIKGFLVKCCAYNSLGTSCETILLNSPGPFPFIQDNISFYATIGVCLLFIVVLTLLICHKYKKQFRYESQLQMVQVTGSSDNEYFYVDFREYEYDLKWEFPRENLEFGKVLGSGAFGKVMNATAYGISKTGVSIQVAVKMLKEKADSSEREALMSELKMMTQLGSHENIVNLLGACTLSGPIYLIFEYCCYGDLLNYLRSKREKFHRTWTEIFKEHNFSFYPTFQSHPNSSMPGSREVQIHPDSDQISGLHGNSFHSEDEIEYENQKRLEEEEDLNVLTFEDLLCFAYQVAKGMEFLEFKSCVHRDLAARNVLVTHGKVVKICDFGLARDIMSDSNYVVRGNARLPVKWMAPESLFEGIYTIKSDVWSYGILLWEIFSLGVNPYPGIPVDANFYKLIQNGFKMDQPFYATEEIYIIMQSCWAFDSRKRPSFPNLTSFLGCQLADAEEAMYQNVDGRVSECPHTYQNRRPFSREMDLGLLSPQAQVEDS
As to the kind of experiment: cell-based or functional assay.

Assay [2] concerns the target T1, human FLT3 (Fms Related Receptor …). As to the kind of experiment: flow cytometry on FLT3+ REH cells. An excerpt:
(§1) Cells were washed five times with flow buffer and stained with anti-human IgG lambda antibody conjugated to FITC (Southern Biotech 2070-02). Cells were stained with 7-AAD (7-AAD Viability Staining Solution, Biolegend 420404) followed by flow cytometry analysis.
For orientation: A flow cytometer gives signals particle by particle.

The target in assay [3] is T2, human CD3 on the surface of T cells / Jurkat cells (human, UniProt P07766 23-207; P09693 23-182; P04234 22-171).
T2 construct: whole, on cells
Kind of assay: flow cytometry on CD3+ human T cells.
Text: as §1

Assay [4] has as its target T3, Recombinant Human CD3 epsilon Fc Chimera Protein (R&D, no. 9850-CD-050) (human, UniProt P07766 23-126).
T3 construct: Bought reagent; Fc part of the bought chimera not given
As to the kind of experiment: ELISA, plate coated with recombinant human CD3 epsilon Fc chimera. On the procedure:
The plate was washed with wash buffer (PBS (Caisson Labs, no. PBL06)+0.05% Tween20 (ThermoFisher, no. 28320)) The plate was blocked with blocking buffer (PBS (Caisson Labs, no. PBL06)+1% (w/v) BSA (Rockland, no. BSA-50)+0.05% Tween20 (ThermoFisher, no 28320)) for two hours at room temperature (RT). Plate was washed twice with wash buffer. […] Plate was washed 4× with wash buffer. Plate was incubated with 100 μL per well of 1:200 goat anti-human lambda-HRP secondary antibody (SouthernBiotech, no. 2070-05) for one hour at RT. Plate was washed 4× with wash buffer. Plate was incubated with 100 μL per well of TMB Substrate (ThermoFisher Cat #34029) for 20 minutes protected from light. Stop solution (2N H₂SO₄) was added to each well. Absorbance of wells was recorded at 450 nm on an Envision plate reader (PerkinElmer). […] Variable slope (four parameters) curve was fit to the data and EC50 was used to compare binding affinities.
A general note: ELISA stands for enzyme-linked immunosorbent assay.

Assay [5] deals with T1, human FLT3 (Fms Related Receptor …). Kind of assay: flow cytometry, chimeric antibody on FLT3-expressing REH cells.
Assay [6] has the same target. As to the kind of experiment: flow cytometry on FLT3-expressing REH cells. The source says: Cells were washed five times with flow buffer and stained with anti-human IgG Fc antibody conjugated to Alexa Fluor 488 (Jackson Immunoresearch Laboratories, 109-545-008). Cells were stained with 7-AAD (7-AAD Viability Staining Solution, Biolegend 420404) followed by flow cytometry analysis. […] The antibodies used are as described in Example 1.

For assay [7], the target named is T2, human CD3 on the surface of T cells / …. As to the kind of experiment: flow cytometry on primary human pan T cells from cord blood.
The target is the same in assay [8]. As to the kind of experiment: flow cytometry on CD3-expressing Jurkat cells. On the procedure:
The mouse heavy and light chain variable regions of SP34 clone were humanized and two humanized variants were tested for their binding affinities to CD3 in Jurkat cells (ATCC) expressing high levels of CD3. Jurkat cells were stained with various concentrations of humanized SP34 variants 2 and 6 (variant 2 VH and VL are SEQ ID NOs: 67 and 68, respectively; variant 6 VH and VL are SEQ ID NOs: 69 and 70, respectively) antibodies prepared in PBS+2% BCS+2 mM EDTA (flow buffer). Cells were washed five times with flow buffer and stained with anti-human IgG Fc antibody conjugated to Alexa Flour 488 (Jackson Immunoresearch Laboratories, 109-095-008). Cells were stained with 7-AAD (7-AAD Viability Staining Solution, Biolegend 420404) followed by flow cytometry analysis.

T2 sequence (P07766 23-207, chain 1 of 3): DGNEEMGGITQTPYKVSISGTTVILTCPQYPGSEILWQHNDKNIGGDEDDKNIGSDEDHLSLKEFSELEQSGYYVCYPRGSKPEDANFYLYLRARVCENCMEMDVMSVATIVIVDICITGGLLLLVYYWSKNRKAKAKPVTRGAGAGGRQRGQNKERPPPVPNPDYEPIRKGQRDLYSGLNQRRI
T2 sequence (P09693 23-182, chain 2 of 3): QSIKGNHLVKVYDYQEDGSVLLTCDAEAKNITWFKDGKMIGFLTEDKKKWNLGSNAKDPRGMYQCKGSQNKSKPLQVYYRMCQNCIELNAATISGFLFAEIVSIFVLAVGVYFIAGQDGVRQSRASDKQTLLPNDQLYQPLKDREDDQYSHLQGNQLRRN
T2 sequence (P04234 22-171, chain 3 of 3): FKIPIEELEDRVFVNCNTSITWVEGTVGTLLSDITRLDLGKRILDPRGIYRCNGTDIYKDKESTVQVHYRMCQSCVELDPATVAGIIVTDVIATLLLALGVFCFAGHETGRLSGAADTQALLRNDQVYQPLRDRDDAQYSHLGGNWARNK
T3 sequence (P07766 23-126, change not shown): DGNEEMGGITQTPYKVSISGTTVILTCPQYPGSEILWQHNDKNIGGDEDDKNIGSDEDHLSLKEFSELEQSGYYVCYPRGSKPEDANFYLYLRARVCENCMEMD

B1: CD3xFLT3 bispecific antibody 118BA #3C (bispecific antibody, human IgG1, lambda)
heavy: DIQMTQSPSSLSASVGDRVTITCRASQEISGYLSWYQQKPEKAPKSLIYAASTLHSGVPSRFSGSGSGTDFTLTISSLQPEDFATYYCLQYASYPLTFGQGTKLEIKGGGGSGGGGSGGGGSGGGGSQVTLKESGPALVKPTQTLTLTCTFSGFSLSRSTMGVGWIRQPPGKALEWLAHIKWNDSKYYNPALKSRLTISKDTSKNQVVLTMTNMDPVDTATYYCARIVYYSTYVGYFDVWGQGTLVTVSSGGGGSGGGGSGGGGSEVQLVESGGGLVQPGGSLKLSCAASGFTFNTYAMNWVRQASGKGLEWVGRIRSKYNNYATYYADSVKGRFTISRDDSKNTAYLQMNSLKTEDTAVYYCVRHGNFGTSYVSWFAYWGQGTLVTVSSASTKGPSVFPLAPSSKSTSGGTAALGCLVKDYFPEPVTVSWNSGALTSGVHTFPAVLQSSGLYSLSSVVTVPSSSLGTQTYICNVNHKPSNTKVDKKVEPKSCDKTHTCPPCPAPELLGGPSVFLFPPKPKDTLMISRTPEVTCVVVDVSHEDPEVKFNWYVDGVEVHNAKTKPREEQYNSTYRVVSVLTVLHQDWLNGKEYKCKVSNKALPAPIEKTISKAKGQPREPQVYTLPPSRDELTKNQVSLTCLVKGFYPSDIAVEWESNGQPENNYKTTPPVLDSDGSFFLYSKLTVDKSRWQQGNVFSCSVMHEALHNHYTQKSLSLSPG
light: QAVVTQEPSFSVSPGGTVTLTCGSSTGAVTTSNYANWVQQTPGQAFRGLIGGTNKRSSGVPDRFSGSLLGDKAALTITGAQADDESDYYCALWFSNHWVFGGGTKLTVLGGQPKAAPSVTLFPPSSEELQANKATLVCLISDFYPGAVTVAWKADSSPVKAGVETTTPSKQSNNKYAASSYLSLTPEQWKSHRSYSCQVTHEGSTVEKTVAPTECS
In the case of B1, the “EC50 of cytotoxicity against REH cells” value in assay [1] was 0.013 nM. Also, the concentration giving a half-maximal response (EC50) in assay [2] turned out to be 0.9 nM; in assay [3] it was 32 nM.

B2: CD3xFLT3 bispecific antibody 118BA #3A (bispecific antibody, human IgG1, lambda)
heavy: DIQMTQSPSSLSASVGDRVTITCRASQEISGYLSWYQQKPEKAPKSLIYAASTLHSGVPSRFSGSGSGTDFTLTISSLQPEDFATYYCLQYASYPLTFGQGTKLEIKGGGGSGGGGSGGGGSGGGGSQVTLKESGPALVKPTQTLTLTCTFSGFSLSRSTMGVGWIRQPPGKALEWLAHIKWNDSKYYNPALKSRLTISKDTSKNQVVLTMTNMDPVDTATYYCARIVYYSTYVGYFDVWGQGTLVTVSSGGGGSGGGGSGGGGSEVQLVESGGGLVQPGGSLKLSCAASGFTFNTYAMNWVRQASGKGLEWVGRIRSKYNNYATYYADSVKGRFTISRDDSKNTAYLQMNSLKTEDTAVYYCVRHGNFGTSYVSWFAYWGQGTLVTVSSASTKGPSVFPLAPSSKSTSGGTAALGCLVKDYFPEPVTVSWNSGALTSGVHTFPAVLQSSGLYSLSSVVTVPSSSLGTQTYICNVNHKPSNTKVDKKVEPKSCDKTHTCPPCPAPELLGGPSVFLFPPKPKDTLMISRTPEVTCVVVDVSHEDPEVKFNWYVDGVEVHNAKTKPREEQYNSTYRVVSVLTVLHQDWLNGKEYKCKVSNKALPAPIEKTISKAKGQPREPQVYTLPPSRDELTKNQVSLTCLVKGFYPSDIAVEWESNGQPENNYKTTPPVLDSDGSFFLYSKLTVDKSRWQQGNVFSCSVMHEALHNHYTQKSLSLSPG
light: QAVVTQEPSFSVSPGGTVTLTCGSSTGAVTTSNYANWVQQTPGQAFRGLIGGTNKRSSGVPDRFSGSLLGDKAALTITGAQADDESDYYCALWYSNLWVFGGGTKLTVLGGQPKAAPSVTLFPPSSEELQANKATLVCLISDFYPGAVTVAWKADSSPVKAGVETTTPSKQSNNKYAASSYLSLTPEQWKSHRSYSCQVTHEGSTVEKTVAPTECS
For B2, in assay [1], the “EC50 of cytotoxicity against REH cells” value stood at 0.013 nM. Besides, the EC50 in assay [2] came to 1.18 nM; in assay [3], 15.5 nM.

B3: CD3xFLT3 bispecific antibody 118BA #3a1 (bispecific antibody, human IgG1, lambda)
heavy: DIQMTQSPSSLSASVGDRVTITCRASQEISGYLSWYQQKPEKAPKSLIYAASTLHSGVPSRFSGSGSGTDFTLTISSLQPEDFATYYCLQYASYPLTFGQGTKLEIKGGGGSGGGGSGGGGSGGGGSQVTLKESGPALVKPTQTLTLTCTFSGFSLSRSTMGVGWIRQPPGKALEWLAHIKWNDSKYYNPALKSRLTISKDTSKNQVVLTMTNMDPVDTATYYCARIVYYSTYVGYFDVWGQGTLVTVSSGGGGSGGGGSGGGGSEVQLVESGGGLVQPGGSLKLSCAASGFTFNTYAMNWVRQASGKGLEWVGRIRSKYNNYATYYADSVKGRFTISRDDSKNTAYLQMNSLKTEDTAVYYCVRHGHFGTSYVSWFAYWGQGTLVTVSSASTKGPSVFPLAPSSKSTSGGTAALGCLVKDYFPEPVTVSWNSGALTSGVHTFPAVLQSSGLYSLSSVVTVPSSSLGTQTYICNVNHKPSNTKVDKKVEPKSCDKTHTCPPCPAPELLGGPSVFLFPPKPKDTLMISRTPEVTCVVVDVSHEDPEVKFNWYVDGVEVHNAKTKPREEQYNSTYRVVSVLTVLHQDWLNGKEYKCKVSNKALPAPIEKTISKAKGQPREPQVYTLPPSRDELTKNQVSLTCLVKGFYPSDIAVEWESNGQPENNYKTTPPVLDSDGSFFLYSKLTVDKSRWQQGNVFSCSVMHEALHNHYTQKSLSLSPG
light: QAVVTQEPSFSVSPGGTVTLTCGSSTGAVTTSNYANWVQQTPGQAFRGLIGGTNKRSSGVPDRFSGSLLGDKAALTITGAQADDESDYYCALWFSNHWVFGGGTKLTVLGGQPKAAPSVTLFPPSSEELQANKATLVCLISDFYPGAVTVAWKADSSPVKAGVETTTPSKQSNNKYAASSYLSLTPEQWKSHRSYSCQVTHEGSTVEKTVAPTECS
Take B3: the “EC50 of cytotoxicity against REH cells” value in assay [1] stood at 0.33 nM. Moreover, the EC50 in assay [2] was 1.17 nM; in assay [4], 0.0331 µg/mL and 0.16 nM.

B4: CD3xFLT3 bispecific antibody 118BA #3B (bispecific antibody, human IgG1, lambda)
heavy: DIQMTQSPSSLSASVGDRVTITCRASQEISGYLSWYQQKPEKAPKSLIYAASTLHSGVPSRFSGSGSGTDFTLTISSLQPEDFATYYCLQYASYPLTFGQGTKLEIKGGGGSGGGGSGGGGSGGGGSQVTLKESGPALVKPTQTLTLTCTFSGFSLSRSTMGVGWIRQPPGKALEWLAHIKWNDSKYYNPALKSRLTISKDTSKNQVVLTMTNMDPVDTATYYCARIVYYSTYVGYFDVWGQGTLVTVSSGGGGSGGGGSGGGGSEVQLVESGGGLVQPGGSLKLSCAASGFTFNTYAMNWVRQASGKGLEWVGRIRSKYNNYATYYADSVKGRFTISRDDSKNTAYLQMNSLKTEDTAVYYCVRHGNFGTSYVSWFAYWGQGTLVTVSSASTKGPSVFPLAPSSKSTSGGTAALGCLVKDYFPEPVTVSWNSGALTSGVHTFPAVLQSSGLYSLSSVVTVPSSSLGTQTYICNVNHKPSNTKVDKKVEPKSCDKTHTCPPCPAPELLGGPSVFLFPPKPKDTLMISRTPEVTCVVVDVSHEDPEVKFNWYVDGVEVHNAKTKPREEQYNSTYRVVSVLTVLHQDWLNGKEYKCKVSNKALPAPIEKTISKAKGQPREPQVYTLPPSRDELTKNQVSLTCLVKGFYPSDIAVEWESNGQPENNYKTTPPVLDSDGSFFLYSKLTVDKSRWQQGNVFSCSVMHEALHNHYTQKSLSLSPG
light: QAVVTQEPSFSVSPGGTVTLTCGSSTGAVTTSNYANWVQQTPGQAFRGLIGGTNKRVSGVPDRFSGSLLGDKAALTITGAQADDESDYYCALWFSNHWVFGGGTKLTVLGGQPKAAPSVTLFPPSSEELQANKATLVCLISDFYPGAVTVAWKADSSPVKAGVETTTPSKQSNNKYAASSYLSLTPEQWKSHRSYSCQVTHEGSTVEKTVAPTECS
For the molecule B4, in assay [1], the “EC50 of cytotoxicity against REH cells” value stood at 0.017 nM. Moreover, the figures for the EC50 in assay [2] and in assay [3] were 1.23 nM and 13.6 nM, respectively.

B5: chimeric monoclonal anti-FLT3 antibody 118BA (antibody, V domains shown)
VH: QVTLKESGPGILQPSQTLSLTCSFSGFSLSTSTMGVGWIRQPSGKGLEWLLHILWNDSKYYNPALKSRLTISKDTYNKQVFLKIANVDTADTATYYCARIVYYSTYVGYFDVWGAGTTVTVSS
VL: DIQMTQSPSSLSASLGERVSLTCRASQEISGYLSWLQQKPDGTIKRLIYAASTLHSGVPKRFSGSRSGSDYSLTISRLESEDVADYYCLQYASYPFTFGSGTKLEIK
In the case of B5, a half-maximal effect in assay [5] (EC50) was put at 0.77 nM.

B6: humanized 118BA variant 1 (antibody, V domains shown)
VH: QVTLKESGPTLVKPTQTLTLTCTFSGFSLSTSTMGVGWIRQPPGKALEWLAHILWNDSKRYNPSLKSRLTITKDTSKKQVVLTMTNMDPVDTATYYCARIVYYSTYVGYFDVWGQGTTVTVSS
VL: DIQMTQSPSSLSASVGDRVTITCRASQEISGYLSWLQQKPGKAIKRLIYAASTLQSGVPSRFSGSRSGSDYTLTISSLQPEDFATYYCLQYASYPFTFGQGTKLEIK
notes: detected with anti-human IgG Fc; also called 18BA-v1; 1-18BA-v1
In assay [6], B6 gave an EC50 of 0.4 nM.

B7: humanized 118BA variant 5 (antibody, V domains shown)
VH: QITLKESGPTLVKPTQTLTLTCTFSGFSLSTSTMGVGWIRQPPGKALEWLAHILWNDDKRYGPSLKSRLTITKDTSKKQVVLTMTNMDPVDTATYYCARIVYYSTYVGYFDVWGQGTTVTVSS
VL: EIVMTQSPGTLSLSPGERATLSCRASQEISGYLSWLQQKPGQAIRRLIYAASTRATGIPDRFSGSRSGSDYTLTISRLEPEDFAVYYCLQYASYPFTFGQGTKLEIK
notes: detected with anti-human IgG Fc; also called 18BA-v5
In assay [6], B7 yielded an EC50 of 0.72 nM.

B8: chimeric monoclonal anti-CD3 IgG SP34 clone (antibody, V domains shown)
VH: EVQLVESGGGLVQPKGSLKLSCAASGFTFNTYAMNWVRQAPGKGLEWVARIRSKYNNYATYYADSVKDRFTISRDDSQSILYLQMNNLKTEDTAMYYCVRHGNFGNSYVSWFAYWGQGTLVTVSS
VL: QAVVTQESALTTSPGETVTLTCRSSTGAVTTSNYANWVQEKPDHLFTGLIGGTNKRAPGVPARFSGSLIGDKAALTITGAQTEDEAIYFCALWYSNLWVFGGGTKLTVL
Take B8: in assay [7], the EC50 was 3.2 nM.

B9: humanized SP34 variant 6 (antibody, human IgG1, V domains shown)
VH: EVQLVESGGGLVQPGGSLKLSCAASGFTFNTYAMNWVRQASGKGLEWVGRIRSKYNNYATYYADSVKGRFTISRDDSKNTAYLQMNSLKTEDTAVYYCVRHGNFGNSYVSWFAYWGQGTLVTVSS
VL: QAVVTQEPSFSVSPGGTVTLTCGSSTGAVTTSNYANWVQQTPGQAFRGLIGGTNKRSSGVPDRFSGSLLGDKAALTITGAQADDESDYYCALWYSNLWVFGGGTKLTVLG
notes: also called humSP34-v6; humanized anti-CD3 SP34 variant 6
B9 returned an EC50 in assay [8] of 3.2 nM.

B10: humanized SP34 variant 2 (antibody, human IgG1, V domains shown)
VH: EVQLVESGGGLVQPGGSLKLSCAASGFTFNTYAMNWVRQASGKGLEWVGRIRSKYNNYATYYADSVKGRFTISRDDSKSTAYLQMNSLKTEDTAVYYCVRHGNFGNSYVSWFAYWGQGTLVTVSS
VL: QAVVTQEPSLTVSPGGTVTLTCGSSTGAVTTSNYANWVQQKPGQAFRTLIGGTNKKHPWTPARFSGSLLGGKAALTLSGAQPEDEAEYYCALWYSNLWVFGGGTKLTVLG
notes: also called humSP34-v2; humanized anti-CD3 SP34 variant 2
For the molecule B10, in assay [8], the concentration for a half-maximal effect (EC50) worked out at 2.38 nM.

(Values after US20240368288A1 (HEMOGENYX PHARMACEUTICALS, published 2024).)
